Biological target: T1, domain V of human β2GPI (human, UniProt P02749 263-345)
T1 sequence (looked up): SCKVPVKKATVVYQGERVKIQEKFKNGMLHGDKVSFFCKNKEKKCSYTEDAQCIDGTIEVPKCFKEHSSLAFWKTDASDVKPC
Assay: ITC

Kd: 14 µM
dH: -4.3 ± 0.2 kcal/mol
stoichiometry N: 1.04 ± 0.03
B1: Asn36/Asp mutant of mouse A1 (domain or fragment)
chain: not shown
